Results from PMC3136439, “Auxin Response Factor2 (ARF2) and Its Regulated Homeodomain Gene HB33 Mediate Abscisic Acid Response in Arabidopsis”.
Residue numbers refer to the chain shown, from its start.

T1: GST-ARF2 N-terminus (ARF2-N1-470, DNA-binding domain) (Arabidopsis thaliana, UniProt Q94JM3 1-470)
T1 sequence: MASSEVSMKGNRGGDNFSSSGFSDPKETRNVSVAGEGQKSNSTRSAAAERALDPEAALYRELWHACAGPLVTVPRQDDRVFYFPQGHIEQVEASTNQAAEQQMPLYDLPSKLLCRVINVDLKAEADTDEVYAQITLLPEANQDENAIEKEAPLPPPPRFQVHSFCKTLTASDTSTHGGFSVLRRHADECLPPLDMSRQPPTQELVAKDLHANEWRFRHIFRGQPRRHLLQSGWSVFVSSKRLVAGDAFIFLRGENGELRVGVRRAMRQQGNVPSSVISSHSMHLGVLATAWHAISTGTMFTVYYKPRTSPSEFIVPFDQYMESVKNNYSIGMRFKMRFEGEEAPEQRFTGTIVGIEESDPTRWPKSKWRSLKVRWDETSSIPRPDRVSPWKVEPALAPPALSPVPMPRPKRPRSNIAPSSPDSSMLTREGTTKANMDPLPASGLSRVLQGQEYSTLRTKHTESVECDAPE

B1: HB33 promoter probe (dsDNA)
DNA 1: CCAAATTGTCTCTTATAATCCGATCTCAAAGGTTGGCTTGTTGGGAGCACTGAGACATCAAAC
DNA 2: GTTTGATGTCTCAGTGCTCCCAACAAGCCAACCTTTGAGATCGGATTATAAGAGACAATTTGG
B2: HB33 promoter mProbe (mP) (dsDNA)
DNA 1: B1 DNA 1 with T9A, T11A, A53T, A55T
DNA 2: B1 DNA 2 with T9A, T11A, A53T, A55T

Molecular target: T1, GST-ARF2 N-terminus (ARF2-N1-470, …)
Assay: EMSA; poly(dI-dC); EMSA: 5x buffer 50 mM HEPES-KOH pH 7.5, 375 mM KCl, 6.25 mM MgCl (so in the source), 1 mM DTT, 0.5 ug/mL BSA, 25% glycerol; 25 fmol probe, 6 ug protein, 1 ug poly(dI-dC) in 20 ul, room temperature 20 min; 6.5% native PAGE in TGE pH 8.3
Settings: protein: recombinant; tags: GST; chain copies: 2; blunt

Binder | binding result
B1 | binds
B2 | no binding
